Ends that are not written are not given here. Peptide text beside a SMILES is read from it. * marks the point of attachment. Biotin = O=C1N[C@H]2[C@H](CS[C@H]2CCCCC(=O)*)N1
Tests used:
HMVEC = HMVEC (Homo sapiens, UniProt P11021); test: VEGF-stimulated HMVEC migration (Boyden chamber); assay type: cell-based; conditions: for inhibition of migration of activated endothelial cells (in words): compared to rK5; for IC50: read-out: IC50 values, inhibition of VEGF stimulation HMVEC migration, 3 ng/ml VEGF, 4 hours at 37° C., 48 well Boyden chamber
Sequence of HMVEC (P11021 19-654): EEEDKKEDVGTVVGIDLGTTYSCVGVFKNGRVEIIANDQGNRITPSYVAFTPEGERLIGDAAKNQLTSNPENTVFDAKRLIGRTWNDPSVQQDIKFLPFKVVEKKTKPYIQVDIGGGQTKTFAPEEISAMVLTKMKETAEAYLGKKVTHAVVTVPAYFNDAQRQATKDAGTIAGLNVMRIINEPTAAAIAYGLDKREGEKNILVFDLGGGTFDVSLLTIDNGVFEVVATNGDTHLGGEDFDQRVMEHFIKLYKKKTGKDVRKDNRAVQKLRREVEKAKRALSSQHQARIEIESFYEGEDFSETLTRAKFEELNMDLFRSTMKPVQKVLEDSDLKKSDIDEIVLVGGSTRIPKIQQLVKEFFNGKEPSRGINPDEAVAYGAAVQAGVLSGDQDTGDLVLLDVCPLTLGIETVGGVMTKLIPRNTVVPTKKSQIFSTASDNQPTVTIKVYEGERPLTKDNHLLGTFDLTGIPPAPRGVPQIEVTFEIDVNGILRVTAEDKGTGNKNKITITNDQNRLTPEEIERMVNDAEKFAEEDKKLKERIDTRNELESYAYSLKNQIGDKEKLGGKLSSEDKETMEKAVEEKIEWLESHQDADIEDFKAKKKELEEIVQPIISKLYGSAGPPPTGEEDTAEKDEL
Protocol: Endothelial cell migration assays: The effect of rK5 on endothelial cell migration was determined by two different methods. The first assay was performed in a 96 well plate with a cellulose membrane between the upper and lower chambers. HMVEC were starved of growth factors overnight, labeled with fluorescent calcein AM (50-100 nM), plated into a 96 well migration chamber (2.9×10^4/well) (Neuroprobe, Gaitherburg, Md.), and stimulated to migrate with VEGF (5 ng/mL). After 4 h, migrated cells were measured by fluorescence (Frevert C W, Wong V A, Goodman R B, Goodwin R, Martin T R. Rapid fluorescence-based measurement of neutrophil migration in vitro. J Immunol Methods. 1998 Apr. 1;213(1):41-52). In a second assay for cellular migration, a standard Boyden chamber was used (Polyerini, P. J., Bouck, N. P. & Rastinejad, F. Assay and purification of naturally occurring inhibitor of angiogenesis. Meth. Enzymol. 198, 440-450 (1991)). HMVEC cells were starved overnight in DME containing 0.1% bovine serum albumin (BSA) and harvested by scraping and resuspended in DME with 0.1% BSA at 1.5×10^6 cells per ml. Cells were added to the bottom of a 48-well, Boyden chamber. The chamber was assembled and inverted, and cells were allowed to attach for 2 hours at 37° C. to polycarbonate chemotaxis membranes (5 μm pore size) that had been soaked in 0.1% gelatin overnight and dried. The chamber was re-inverted, test substances, including activators were added to the wells of the upper chamber and the apparatus was incubated for 4 hours at 37° C. Growth factors were used, where indicated, at concentrations determined in preliminary experiments to give equivalent migration responses of about 100 cells migrated/high powered field (400×). […] Membranes were recovered, fixed and stained and the number of cells that had migrated to the upper chamber per 10 high power fields counted. Background migration to DME+0.1% BSA was subtracted and the data reported as the number of cells migrated per 10 high power fields (400×) or, when results from multiple experiments were combined, as the percent inhibition of migration compared to the positive growth factor control (Polyerini, P. J., Bouck, N. P. & Rastinejad, F. Assay and purification of naturally occurring inhibitor of angiogenesis. Meth. Enzymol. 198, 440-450 (1991)).

[1] = system: EAHY cell surface proteins (~75 kDa and ~95 kDa); test: S-tag-K5 affinity pull-down of biotinylated EAHY surface proteins; assay type: binding; conditions: 100 nM S-tag-K5; 1 μM peptides, 10 μM cold rK5
Protocol: The second method used to identify cell surface rK5 binding proteins was described previously (Zhang, J. C., et al, supra). Surface proteins on 4×10^6 EaHy cells were labeled with NHS-biotin. The cells were washed and lysed (M-Per, Pierce). Cell lysates were mixed with S-tag K5 for 1 hour at room temperature. S-tag K5 bound proteins were precipitated with S-protein agarose (Pierce). Bound proteins were eluted with excess rK5 or with excess PRKLYDY (SEQ ID NO:1) peptide. Eluted proteins were visualized with avidin-HRP and a chemiluminescent substrate. Mass spectroscopic analysis was used to identify the major protein bands.
In particular, surface proteins on 1×10^6 EAHY cells were labeled with NHS-biotin. The cells were washed 3× with PBS and lysed with M-pur. Cell lysates were mixed with (A) 100 nM S-tag-K5, (B) 100 nM S-tag-K5 plus 1 μM PRKLYDY, (C) 100 nM S-tag-K5 plus 10 μM cold rK5 and (D) 100 nM S-tag-K5 and N-terminal K5 peptide at 1 μM for 1 hour at room temperature. The K5 binding proteins were precipitated with S-protein-agarose. Bound proteins were eluted with 50 mM glycine buffer at pH 3.0 and run for PAGE analysis. Surface proteins (biotinylated) that bind K5 were visualized with avidin-HPR and a chemiluminescent substrate.

GRP78 (bovine brain) = target: T1, GRP78 (bovine brain) (Bos taurus, UniProt Q0VCX2); test: Ultracentrifugation binding of I125rK5(dog) with GRP78; conditions: 1 nM I125rK5(dog) + 1.5 nM GRP78; peptides 100 nM, rK5 1 nM
T1 construct: from tissue; host or cells: bovine brain
T1 sequence (Q0VCX2 20-655): as the sequence (P11021 19-654) above, with I114V, G626S, D629E, T630A, E632D counted along it
Protocol: Ultra centrifugation with 50,000 MW cut off filters was used with iodinated recombinant dog K5 (I^125rKS(dog)) and GRP78 (bovine brain). The GRP78 and I^125rK5 (dog) were incubated for 1 hour at room temperature. The solution was then transferred to ultracentrifuges and spun at 10,000×g for 2 min. The top chamber contained GRP78 (mw 78,000) and I^125rK5 (dog) that bound. The top and bottom solutions were counted for I125. Column A: 1 nM I^125rK5(dog). Column B: 1 nM I^125rK5 (dog)+1.5 nM GRP78. Column C: 1 nM I^125rK5(dog)+1.5 nM GRP78+100 nM N-terminal K5 peptide, LLPDVETPSEED. Column D: 1 nM I^125rK5(dog)+1.5 nM GRP78±100 nM active site K5 peptide PRKLYDY. Column E: 1 nM I^125rK5(dog)+1.5 nM GRP78+1 nM rK5 (unlabeled). The GRP78 bound to the labeled rK5 causing its retention on the top of the filter.

HMVECs = test: Competition of 3HK5 binding to endothelial cells; parameters: species or system human; conditions: 2 nM 3HK5; rK5(K82A) up to 500 nM
Protocol: Each K5 peptide or a N-terminal antibody to GRP78 was added to HMVECs at various concentrations for 1 hour at room temperature. Cells were washed and the amount of ^3HK5 bound was counted.
Binding of human ^125IrK5 to Endothelial Cells: Tritium-labeled rK5 was added to monolayers of 50,000 HMVEC cells that were either starved or stimulated for 16 hours by 15 ng/ml bFGF and 5 ng/ml VEGF in 96 well plates. The number of counts remaining bound to the cells after extensive washing determined total amount of rK5 bound (Dudani A K, Ganz P R. Endothelial cell surface actin serves as a binding site for plasminogen, tissue plasminogen activator and lipoprotein(a). Br J Haematol. 1996 October; 95(1): 168-78). Binding of ^125IK5 (dog) to Endothelial Cells and rK5 to Recombinant GRP78: The same methods as described above for the expression and purification of human K5 were used to express dog rK5 in E. coli. ^125IK5 (dog) was added to the wells and incubated at room temperature for 1 hour. After 1 hour the cells were washed and lysed with M-Per (Pierce, Racine, Wis.) and the amount of ^125IK5 (dog) bound was counted. Scatchard plot analysis was performed using Prism (GraphPad Software, Inc., San Diego, Calif.) software. Competition binding against 5 nM ^125IK5 (dog) was tested using a monoclonal antibody against GRP78 (N-20, Santa Cruz, Calif.) or a monoclonal antibody against K5 (Green Mountain Antibodies, Burlington, Vt.). The antibodies were added to HMVECs at various concentrations for 1 hour at room temperature. Cells were washed and the amount of bound ^125IK5 (dog) bound was counted. Competition binding was also tested against 2 nM 3HK5. K5 peptides or a c-terminal antibody to GRP78 (A-129, Santa Cruz, Calif.) were added to HMVECs at various concentrations for 1 hour at room temperature. Cells were washed, lysed and the amount of ^3HK5 bound was estimated by scintillation counting.

[2] = target: GRP78 on the surface of human cells (EAHY, HMVEC, HT1080) (human, UniProt P11021 19-654); test: cell-based or functional assay
Sequence of GRP78 on the surface of human cells (EAHY, HMVEC, HT1080) (P11021 19-654): as the sequence (P11021 19-654) above

Molecule: CC(C)C[C@H](NC(=O)[C@H](CCCCN)NC(=O)[C@H](CCCNC(=N)N)NC(=O)[C@@H]1CCCN1C(=O)CCCC[C@@H]1SC[C@@H]2NC(=O)N[C@@H]21)C(=O)N[C@@H](Cc1ccc(O)cc1)C(=O)N[C@@H](CC(=O)O)C(=O)N[C@@H](Cc1ccc(O)cc1)C(=O)O [Biotin-PRKLYDY] (Biotin-PRKLYDY-OH)
- inhibition of migration of activated endothelial cells (in words) (HMVEC): similarly active

Molecule: KLYD (listed as Homo sapiens)
- inhibition of migration of activated endothelial cells (in words) (HMVEC): equally potent compared to rK5

Molecule: Ac-KLYDY-NH2 [Ac-KLYDY-NH2]
- inhibition of migration of activated endothelial cells (in words) (HMVEC): equally potent compared to rK5

Molecule: Ac-VLLPDVETPSEED-NH2 [Ac-VLLPDVETPSEED-NH2]
- IC50 (HMVEC): > 1000 nM

Molecule: CC(=O)N[C@@H](CC(C)C)C(=O)N[C@@H](Cc1ccc(O)cc1)C(=O)N[C@@H](CC(=O)O)C(=O)N[C@@H](Cc1ccc(O)cc1)C(N)=O [Ac-LYDY-NH2] (Ac-LYDY-NH2)
- IC50 (HMVEC): > 1000 nM

Molecule: N-term-S-tag-Kringle 5: S-protein tagged rK5 used as probe for isolation of the cell surface receptor
- inhibition of migration of activated endothelial cells (in words) (HMVEC): similarly active

Molecule: LLPDVETPSEED (listed as Homo sapiens)
- competition of protein binding to the S-tag K5 column [1]: did not inhibit
- inhibition of I125rK5(dog) binding to GRP78 (GRP78 (bovine brain)): not
- blocking of 3HK5 binding to endothelial cells (HMVECs): not

Molecule: PRKLYDY (listed as Homo sapiens)
- competition of protein binding to the S-tag K5 column [1]: competed
- inhibition of I125rK5(dog) binding to GRP78 (GRP78 (bovine brain)): inhibited
- inhibition of migration of activated endothelial cells (in words) (HMVEC): equally potent compared to rK5
- blocking of 3HK5 binding to endothelial cells (HMVECs): blocked

Molecule: Ac-MFGNGKGYRGKRATTVTGTP-NH2
- IC50 (HMVEC): > 1000 nM

Molecule: Ac-QDWAAQEPHRHSIFTPETNPRAGLEKNY-NH2
- IC50 (HMVEC): > 1000 nM

Molecule: CC(=O)N[C@@H](CC(=O)O)C(=O)N[C@H](C(=O)N1CCC[C@H]1C(=O)N[C@@H](CCC(N)=O)C(N)=O)C(C)C [Ac-DVPQ-NH2] (Ac-DVPQ-NH2)
- IC50 (HMVEC): > 1000 nM

B1: Ac-QDWAAQEPHRHSIFTPETNPRAGLEKNY-NH2 (peptide)
peptide: Ac-QDWAAQEPHRHSIFTPETNPRAGLEKNY-NH2
- IC50, inhibition of VEGF stimulated HMVEC migration [2]: > 1000 nM

B2: Ac-MFGNGKGYRGKRATTVTGTP-NH2 (peptide)
peptide: Ac-MFGNGKGYRGKRATTVTGTP-NH2
- IC50, inhibition of VEGF stimulated HMVEC migration [2]: > 1000 nM

B3: Ac-RNPDGDVGGPW-NH2 (peptide)
peptide: Ac-RNPDGDVGGPW-NH2
- IC50, inhibition of VEGF stimulated HMVEC migration [2]: 0.5 nM

B4: Ac-YTTNPRKLYDY-HN2 (peptide)
peptide: Ac-YTTNPRKLYDY-NH2
- IC50, inhibition of VEGF stimulated HMVEC migration [2]: 0.2 nM

B5: Ac-LYDY-NH2 (peptide)
peptide: Ac-LYDY-NH2
- IC50, inhibition of VEGF stimulated HMVEC migration [2]: > 1000 nM

B6: Ac-VLLPDVETPSEED-NH2 (peptide)
peptide: Ac-VLLPDVETPSEED-NH2
- IC50, inhibition of VEGF stimulated HMVEC migration [2]: > 1000 nM

B7: N-term-S-tag-Kringle 5 (ligand, human, UniProt P00747 481-560, looked up, not shown: small tags and cut ends)
chain: CMFGNGKGYRGKRATTVTGTPCQDWAAQEPHRHSIFTPETNPRAGLEKNYCRNPDGDVGGPWCYTTNPRKLYDYCDVPQC
- IC50, inhibition of VEGF stimulated HMVEC migration [2]: 0.2 nM

B8: Ac-DVPQ-NH2 (peptide)
peptide: Ac-DVPQ-NH2
- IC50, inhibition of VEGF stimulated HMVEC migration [2]: > 1000 nM

B9: N-terminally biotinylated PRKLYDY peptide (peptide)
peptide: Biotin-PRKLYDY
- IC50, inhibition of VEGF stimulated HMVEC migration [2]: 0.23 nM

B10: Ac-KLYDY-NH2 (peptide)
peptide: Ac-KLYDY-NH2
- IC50, inhibition of VEGF stimulated HMVEC migration [2]: 0.1 nM

B11: Ac-RKLYDY-NH2 (peptide)
peptide: Ac-RKLYDY-NH2
- IC50, inhibition of VEGF stimulated HMVEC migration [2]: 0.12 nM
